In the experiment the target is HBV virions (Genotype D) (Hepatitis B virus genotype D). Kind of experiment: cell-based or functional assay.

HBC34 (antibody) yielded a neutralization at 0.03 µg/ml, in-vitro assay of 29%.

These data come from patent publication US20240327500A1.
